Reference: paper PMC11272584 (Nature Metabolism, 2024)
Substitutions are numbered along the chain they refer to.

Tests used:
GIPR E291K (human) = target: T1, GIPR E291K (human) (UniProt P48546)
T1 sequence: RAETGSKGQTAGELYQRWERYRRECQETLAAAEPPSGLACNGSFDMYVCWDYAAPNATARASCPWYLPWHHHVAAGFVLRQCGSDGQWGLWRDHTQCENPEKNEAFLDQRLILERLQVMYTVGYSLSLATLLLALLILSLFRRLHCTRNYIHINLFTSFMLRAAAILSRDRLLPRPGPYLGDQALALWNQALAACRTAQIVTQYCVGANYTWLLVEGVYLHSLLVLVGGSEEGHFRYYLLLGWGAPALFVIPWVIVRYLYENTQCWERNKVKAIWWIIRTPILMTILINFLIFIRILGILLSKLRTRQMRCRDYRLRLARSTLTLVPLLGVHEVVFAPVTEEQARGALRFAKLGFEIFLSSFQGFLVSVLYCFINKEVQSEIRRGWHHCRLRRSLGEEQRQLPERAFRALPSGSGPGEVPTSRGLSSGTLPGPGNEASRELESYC

GIPR G449A (human) = target: T2, GIPR G449A (human) (UniProt P48546)
T2 sequence: T1 sequence with K270E, G428A

GIPR I299V (human) = target: T3, GIPR I299V (human) (UniProt P48546)
T3 sequence: T1 sequence with K270E, I278V

GIPR L13F (human) = GIPR L13F (human) (UniProt P48546)
GIPR L304R (human) = target: T4, GIPR L304R (human) (UniProt P48546)
T4 sequence: T1 sequence with K270E, L283R

GIPR S415I (human) = target: T5, GIPR S415I (human) (UniProt P48546)
T5 sequence: T1 sequence with K270E, S394I

GIPR T25R (human) = target: T6, GIPR T25R (human) (UniProt P48546)
T6 sequence: T1 sequence with T4R, K270E

β-arrestin 2 recruitment (BRET) on stimulation with GIP(1-42): logEC50 (Arrestin) (log M (inferred)) (GIPR E291K (human)): -8.48 | β-arrestin 2 recruitment (BRET) on stimulation with GIP(1-42): logEC50 (Arrestin) (log M (inferred)) (GIPR G449A (human)): -9.24 | β-arrestin 2 recruitment (BRET) on stimulation with GIP(1-42): logEC50 (Arrestin) (log M (inferred)) (GIPR I299V (human)): -9.01 | β-arrestin 2 recruitment (BRET) on stimulation with GIP(1-42): logEC50 (Arrestin) (log M (inferred)) (GIPR L13F (human)): -8.75 | β-arrestin 2 recruitment (BRET) on stimulation with GIP(1-42): logEC50 (Arrestin) (log M (inferred)) (GIPR L304R (human)): -9.41 | β-arrestin 2 recruitment (BRET) on stimulation with GIP(1-42): logEC50 (Arrestin) (log M (inferred)) (GIPR S415I (human)): -9.12 | β-arrestin 2 recruitment (BRET) on stimulation with GIP(1-42): logEC50 (Arrestin) (log M (inferred)) (GIPR T25R (human)): -9.3
Substance: β-arrestin 2 (Rluc8-Arrestin-3-Sp1) (from UniProt P32121 1-409) (natural protein)
